Source: PMC9482650, “Quantitative fragmentomics allow affinity mapping of interactomes” (Nature Communications, 2022)
Blank lines part the entries; values can stand above or below the binder they belong to.

Experiments:
Test in all cases: holdup assay
Parameters in all cases: key: below the threshold = too weak to quantify, mostly under pKd 3.1 to 4
[1] = target: T1, APBA3_1, O96018
T1 sequence (O96018 389-490, limits assumed, looked up): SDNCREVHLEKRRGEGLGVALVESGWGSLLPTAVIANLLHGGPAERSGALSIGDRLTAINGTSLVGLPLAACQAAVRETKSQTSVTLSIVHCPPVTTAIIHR

[2] = target: CASK, O14936
[3] = target: T2, DFNB31_3, Q9P202
T2 sequence (Q9P202 811-907, limits assumed, looked up): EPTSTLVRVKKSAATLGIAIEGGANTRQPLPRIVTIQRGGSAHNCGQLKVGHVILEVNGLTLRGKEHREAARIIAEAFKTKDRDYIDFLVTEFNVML

[4] = target: DLG2_2, Q15700
[5] = target: DLG2_3, Q15700
[6] = target: DLG5_1, Q8TDM6
[7] = target: FRMPD2_2, Q68DX3
[8] = target: FRMPD4, Q14CM0
[9] = target: GIPC2, Q8TF65
[10] = target: GOPC, Q9HD26
[11] = target: GRID2IP_1, A4D2P6
[12] = target: GRIP2_6, Q9C0E4
[13] = target: IL16_4, Q14005
[14] = target: Inadl_1, Q8NI35
[15] = target: LDB3, O75112
[16] = target: T3, LIN7C, Q9NUP9
T3 sequence (Q9NUP9 88-185, limits assumed, looked up): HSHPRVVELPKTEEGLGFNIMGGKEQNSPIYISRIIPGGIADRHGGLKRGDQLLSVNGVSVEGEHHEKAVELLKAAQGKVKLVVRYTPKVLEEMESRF

[17] = target: MAGI2_2, Q86UL8
[18] = target: MAGI2_3, Q86UL8
[19] = target: T4, MPDZ_10, O75970
T4 sequence (O75970 1624-1722, limits assumed, looked up): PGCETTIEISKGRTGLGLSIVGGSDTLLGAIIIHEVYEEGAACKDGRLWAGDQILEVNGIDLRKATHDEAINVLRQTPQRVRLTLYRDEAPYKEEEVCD

[20] = target: T5, MPDZ_12, O75970
T5 sequence (O75970 1857-1958, limits assumed, looked up): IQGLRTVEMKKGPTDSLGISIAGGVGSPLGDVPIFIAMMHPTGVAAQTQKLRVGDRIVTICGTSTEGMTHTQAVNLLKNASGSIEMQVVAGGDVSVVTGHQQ

[21] = target: NHERF2_2, Q15599
[22] = target: T6, NHERF3_1, Q5T2W1
T6 sequence (Q5T2W1 4-100, limits assumed, looked up): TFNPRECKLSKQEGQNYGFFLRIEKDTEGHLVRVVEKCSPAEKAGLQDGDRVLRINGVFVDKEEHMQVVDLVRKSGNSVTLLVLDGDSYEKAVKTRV

[23] = target: T7, PARD3B_1, Q8TEW8
T7 sequence (Q8TEW8 196-299, limits assumed, looked up): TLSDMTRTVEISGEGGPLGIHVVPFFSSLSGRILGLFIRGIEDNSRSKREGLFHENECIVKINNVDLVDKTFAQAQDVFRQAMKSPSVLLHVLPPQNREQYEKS

[24] = target: T8, RAPGEF6, Q8TEU7
T8 sequence (Q8TEU7 525-625, limits assumed, looked up): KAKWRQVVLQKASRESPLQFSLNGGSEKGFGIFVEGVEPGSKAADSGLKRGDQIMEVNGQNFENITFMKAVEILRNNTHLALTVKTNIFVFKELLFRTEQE

[25] = target: SCRIB_1, Q14160
[26] = target: T9, SNTA1, Q13424
T9 sequence (Q13424 82-180, limits assumed, looked up): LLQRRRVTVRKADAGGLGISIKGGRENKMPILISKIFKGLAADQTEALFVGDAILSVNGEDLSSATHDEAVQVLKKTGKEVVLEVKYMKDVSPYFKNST

[27] = target: T10, SNTG1, Q9NSN8
T10 sequence (Q9NSN8 52-150, limits assumed, looked up): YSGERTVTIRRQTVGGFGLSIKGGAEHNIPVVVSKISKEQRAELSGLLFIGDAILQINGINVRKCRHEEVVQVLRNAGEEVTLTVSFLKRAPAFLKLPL

[28] = target: TJP1_3, Q07157
[29] = plain residues with an end cap or a label only (N-terminal biotin on a linker: ado-ado)
[30] = plain residues with an end cap or a label only (N-terminal biotin on a linker: ahx)

Sequence of MAGI2_3, Q86UL8 (Q86UL8 600-682): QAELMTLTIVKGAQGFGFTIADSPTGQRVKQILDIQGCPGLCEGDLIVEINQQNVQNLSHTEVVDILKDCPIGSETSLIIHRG
Sequence of DLG5_1, Q8TDM6 (Q8TDM6 617-713): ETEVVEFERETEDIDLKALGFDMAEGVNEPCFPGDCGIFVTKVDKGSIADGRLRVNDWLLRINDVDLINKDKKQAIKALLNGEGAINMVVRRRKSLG
Sequence of FRMPD4, Q14CM0 (Q14CM0 67-160): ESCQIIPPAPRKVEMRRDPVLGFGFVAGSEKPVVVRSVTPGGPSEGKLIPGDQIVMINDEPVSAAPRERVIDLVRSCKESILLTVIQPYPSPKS
Sequence of MAGI2_2, Q86UL8 (Q86UL8 410-522): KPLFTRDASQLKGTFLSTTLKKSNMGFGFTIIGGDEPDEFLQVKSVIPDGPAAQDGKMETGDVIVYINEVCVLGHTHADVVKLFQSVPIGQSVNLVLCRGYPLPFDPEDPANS
Sequence of LDB3, O75112 (O75112 1-94): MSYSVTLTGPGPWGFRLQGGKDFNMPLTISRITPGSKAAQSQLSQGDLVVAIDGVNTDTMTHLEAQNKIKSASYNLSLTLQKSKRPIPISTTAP
Sequence of GIPC2, Q8TF65 (Q8TF65 112-203): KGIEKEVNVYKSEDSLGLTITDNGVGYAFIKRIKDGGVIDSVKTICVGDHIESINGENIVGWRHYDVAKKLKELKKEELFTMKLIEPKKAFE
Sequence of SCRIB_1, Q14160 (Q14160 718-814): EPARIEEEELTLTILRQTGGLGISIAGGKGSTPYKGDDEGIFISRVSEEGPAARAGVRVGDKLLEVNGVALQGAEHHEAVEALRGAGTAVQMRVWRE
Sequence of GRIP2_6, Q9C0E4 (Q9C0E4 648-740): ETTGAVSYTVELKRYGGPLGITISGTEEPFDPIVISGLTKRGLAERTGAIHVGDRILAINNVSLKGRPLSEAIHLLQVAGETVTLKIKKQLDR
Sequence of CASK, O14936 (O14936 487-570): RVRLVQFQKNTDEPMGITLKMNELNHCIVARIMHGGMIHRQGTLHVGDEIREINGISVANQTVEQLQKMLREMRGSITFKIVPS
Sequence of TJP1_3, Q07157 (Q07157 416-512): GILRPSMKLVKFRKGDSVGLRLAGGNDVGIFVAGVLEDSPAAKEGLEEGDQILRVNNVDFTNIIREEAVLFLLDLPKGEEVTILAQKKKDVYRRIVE
Sequence of IL16_4, Q14005 (Q14005 1229-1329): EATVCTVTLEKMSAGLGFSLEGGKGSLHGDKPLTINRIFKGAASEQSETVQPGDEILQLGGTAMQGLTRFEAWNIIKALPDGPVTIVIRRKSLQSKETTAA
Sequence of FRMPD2_2, Q68DX3 (Q68DX3 944-1038): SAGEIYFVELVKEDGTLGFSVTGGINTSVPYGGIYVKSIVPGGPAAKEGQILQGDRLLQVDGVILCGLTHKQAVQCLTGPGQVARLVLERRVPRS
Sequence of GRID2IP_1, A4D2P6 (A4D2P6 1-87): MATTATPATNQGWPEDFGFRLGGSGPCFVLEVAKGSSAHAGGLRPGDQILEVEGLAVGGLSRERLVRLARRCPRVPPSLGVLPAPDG
Sequence of NHERF2_2, Q15599 (Q15599 142-238): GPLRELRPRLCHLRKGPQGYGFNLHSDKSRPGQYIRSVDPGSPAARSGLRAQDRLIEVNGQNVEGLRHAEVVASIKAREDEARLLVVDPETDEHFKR
Sequence of Inadl_1, Q8NI35 (Q8NI35 113-229): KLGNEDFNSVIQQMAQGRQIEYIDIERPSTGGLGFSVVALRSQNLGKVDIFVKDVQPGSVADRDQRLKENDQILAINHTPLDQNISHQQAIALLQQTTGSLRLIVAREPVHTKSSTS

pKd [1, 29]: below the threshold
pKd [2, 29]: below the threshold
pKd [3, 29]: below the threshold
pKd [4, 29]: below the threshold
pKd [5, 29]: below the threshold
pKd [6, 29]: below the threshold
pKd [7, 29]: below the threshold
pKd [8, 29]: 4.01
pKd [9, 29]: below the threshold
pKd [10, 29]: 3.5
pKd [11, 29]: below the threshold
pKd [12, 29]: below the threshold
pKd [13, 29]: below the threshold
pKd [14, 29]: below the threshold
pKd [15, 29]: below the threshold
pKd [16, 29]: 4.02
pKd [17, 29]: below the threshold
pKd [18, 29]: below the threshold
pKd [19, 29]: below the threshold
pKd [20, 29]: below the threshold
pKd [21, 29]: 3.91
pKd [22, 29]: 3.71
pKd [23, 29]: 3.63
pKd [24, 29]: below the threshold
pKd [25, 29]: below the threshold
pKd [26, 29]: below the threshold
pKd [27, 29]: below the threshold
pKd [28, 29]: below the threshold
B1: MKNK1, Q9BUB5 (peptide)
chain: GEDRSPPTAL

pKd [1, 29]: below the threshold
pKd [2, 29]: below the threshold
pKd [3, 29]: 3.9
pKd [4, 29]: below the threshold
pKd [5, 29]: 3.63
pKd [6, 29]: below the threshold
pKd [7, 29]: below the threshold
pKd [8, 29]: below the threshold
pKd [9, 29]: 4.08
pKd [10, 29]: below the threshold
pKd [11, 29]: below the threshold
pKd [12, 29]: 4.68
pKd [13, 29]: below the threshold
pKd [14, 29]: below the threshold
pKd [15, 29]: below the threshold
pKd [16, 29]: 4.01
pKd [17, 29]: below the threshold
pKd [18, 29]: below the threshold
pKd [19, 29]: below the threshold
pKd [20, 29]: 3.48
pKd [21, 29]: below the threshold
pKd [22, 29]: below the threshold
pKd [23, 29]: below the threshold
pKd [24, 29]: below the threshold
pKd [25, 29]: below the threshold
pKd [26, 29]: below the threshold
pKd [27, 29]: 3.64
pKd [28, 29]: below the threshold
B2: PTTG2, Q9NZH5 (peptide)
chain: LPAVCYDIDI

pKd [1, 29]: below the threshold
pKd [2, 29]: below the threshold
pKd [3, 29]: 4.08
pKd [4, 29]: below the threshold
pKd [5, 29]: below the threshold
pKd [6, 29]: below the threshold
pKd [7, 29]: below the threshold
pKd [8, 29]: 3.53
pKd [9, 29]: below the threshold
pKd [10, 29]: 3.89
pKd [11, 29]: below the threshold
pKd [12, 29]: below the threshold
pKd [13, 29]: below the threshold
pKd [14, 29]: below the threshold
pKd [15, 29]: below the threshold
pKd [16, 29]: below the threshold
pKd [17, 29]: 4.44
pKd [18, 29]: below the threshold
pKd [19, 29]: below the threshold
pKd [20, 29]: below the threshold
pKd [21, 29]: 3.61
pKd [22, 29]: 4.94
pKd [23, 29]: 4.47
pKd [24, 29]: below the threshold
pKd [25, 29]: 3.71
pKd [26, 29]: 3.58
pKd [27, 29]: below the threshold
pKd [28, 29]: below the threshold
B3: OR8G1, Q15617 (peptide)
chain: KKMLQRRTLL

pKd [1, 29]: below the threshold
pKd [2, 29]: below the threshold
pKd [3, 29]: 3.97
pKd [4, 29]: 3.95
pKd [5, 29]: 3.62
pKd [6, 29]: below the threshold
pKd [7, 29]: below the threshold
pKd [8, 29]: below the threshold
pKd [9, 29]: below the threshold
pKd [10, 29]: below the threshold
pKd [11, 29]: below the threshold
pKd [12, 29]: below the threshold
pKd [13, 29]: 3.49
pKd [14, 29]: below the threshold
pKd [15, 29]: below the threshold
pKd [16, 29]: 4.11
pKd [17, 29]: below the threshold
pKd [18, 29]: below the threshold
pKd [19, 29]: below the threshold
pKd [20, 29]: below the threshold
pKd [21, 29]: below the threshold
pKd [22, 29]: 3.49
pKd [23, 29]: below the threshold
pKd [24, 29]: below the threshold
pKd [25, 29]: 4.1
pKd [26, 29]: 5.09
pKd [27, 29]: 4.61
pKd [28, 29]: below the threshold
B4: SLC16A7, O60669 (peptide)
chain: SVTSERETNI

pKd [1, 30]: below the threshold
pKd [2, 30]: below the threshold
pKd [3, 30]: below the threshold
pKd [4, 30]: below the threshold
pKd [5, 30]: below the threshold
pKd [6, 30]: below the threshold
pKd [7, 30]: below the threshold
pKd [8, 30]: 3.67
pKd [9, 30]: below the threshold
pKd [10, 30]: below the threshold
pKd [11, 30]: below the threshold
pKd [12, 30]: below the threshold
pKd [13, 30]: below the threshold
pKd [14, 30]: below the threshold
pKd [15, 30]: below the threshold
pKd [16, 30]: below the threshold
pKd [17, 30]: below the threshold
pKd [18, 30]: below the threshold
pKd [19, 30]: below the threshold
pKd [20, 30]: below the threshold
pKd [21, 30]: 4.29
pKd [22, 30]: 4.4
pKd [23, 30]: 3.82
pKd [24, 30]: below the threshold
pKd [25, 30]: below the threshold
pKd [26, 30]: below the threshold
pKd [27, 30]: below the threshold
pKd [28, 30]: below the threshold
B5: ACE2, Q9BYF1 (peptide)
chain: QNTDDVQTSF
